Data reported in patent US5998142.

How the values were obtained:
[1] = biological target: T1, neutrophil elastase (hNE) (Homo sapiens) (UniProt P08246); experiment: inhibition
T1 sequence: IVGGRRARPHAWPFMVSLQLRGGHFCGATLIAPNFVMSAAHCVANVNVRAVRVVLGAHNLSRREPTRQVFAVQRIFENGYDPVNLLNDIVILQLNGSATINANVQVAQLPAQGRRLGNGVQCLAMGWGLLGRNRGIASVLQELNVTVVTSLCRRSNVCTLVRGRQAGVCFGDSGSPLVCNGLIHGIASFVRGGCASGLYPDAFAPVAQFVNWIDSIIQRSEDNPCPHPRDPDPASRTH

[2] = biological target: bradykinin, N-bromoacetylated (BrBK) (UniProt P01042); conditions: 5'-GMPS (5' guanosine monophosphorothioate)
Chain of bradykinin, N-bromoacetylated (BrBK) (P01042 whole entry, looked up): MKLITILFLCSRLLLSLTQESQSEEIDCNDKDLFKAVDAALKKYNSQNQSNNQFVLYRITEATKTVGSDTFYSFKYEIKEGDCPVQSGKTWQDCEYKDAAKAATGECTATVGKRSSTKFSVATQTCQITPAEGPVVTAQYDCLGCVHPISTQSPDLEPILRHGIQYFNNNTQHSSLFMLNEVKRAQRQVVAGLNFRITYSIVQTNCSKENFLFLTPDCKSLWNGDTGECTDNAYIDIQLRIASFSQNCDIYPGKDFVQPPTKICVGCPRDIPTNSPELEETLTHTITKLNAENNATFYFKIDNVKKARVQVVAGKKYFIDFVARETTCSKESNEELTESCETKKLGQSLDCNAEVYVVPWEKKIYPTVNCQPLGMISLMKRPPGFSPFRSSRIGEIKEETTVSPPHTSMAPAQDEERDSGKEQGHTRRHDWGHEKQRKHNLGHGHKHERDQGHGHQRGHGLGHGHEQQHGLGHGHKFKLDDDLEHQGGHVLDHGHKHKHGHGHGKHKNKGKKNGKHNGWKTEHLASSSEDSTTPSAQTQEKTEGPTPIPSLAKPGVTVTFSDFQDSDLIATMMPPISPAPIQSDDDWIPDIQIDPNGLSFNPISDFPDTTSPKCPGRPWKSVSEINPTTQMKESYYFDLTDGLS

## GGGAGGACGAUGCGGNNNNNNNNNNNNNNNNNNNNNNNNNNNNNNNNNNNNNNNNCAGACGACGAGCGGGA [40N7.1 rd0 RNA:DNA:valP]
[1]; 2'-NH2 U and C, kinact/[I], unit not given, pool, 37 C
  activity: 290000

## GGGAGCUCAGAAUAAACGCUCAANNNNNNNNNNNNNNNNNNNNNNNNNNNNNNUUCGACAUGAGGCCCGGAUCCGGC [30N1 pool]
[2]
  K half: 13 mM

## GGGAGGACGATGCGGCAGNNGGNNCAGGTAATGTGAGTAACCTCTACTACTCTGCAGACGACGAGCGGGA [ED15]
[1]; kinact/KI, room temperature
  activity: 4.8e+08 M⁻¹ min⁻¹

## GGGAGGACGATGCGGACCACAGCCACTAGNNGCATCGTCCTCTGCGTCCAGACGACGAGCGGGA [ED21]
[1]; kinact/KI, room temperature
  activity: 3.2e+06 M⁻¹ min⁻¹

## GGGAGGACGAUGCGGNNNNNNNNNNNNNNNNNNNNNNNNNNNNNNNNNNNNNNNNCAGACGACGAGCGGGA [40N7.1 ssDNA pool]
[1]; kinact/KI, pool, room temperature
  activity: 1.86e+06 M⁻¹ min⁻¹
